Measured values taken from patent publication US20250368745A1 (published 2025).
Positions count from the first letter of the chain named. Names may count otherwise.

B1: SA301a HC-H52I (antibody, name in Kabat numbering, V domains shown)
VH: QVQLQESGPGLVKPSQTLSLTCTVSGYSITSDYNSHWIRQPPGKGLEWIGYIIYSGSTNYNPSLKSRVTISRDTSKNQFSLKLSSVTAADTAVYYCARNYGSIYVNYFDYWGQGTLVTVSS
VL: EIVLTQSPATLSLSPGERATLSCSASSSVSYMYWYQQKPGQAPRPLIYRTSNLASGIPARFSGSGSGTDFTLTISSLEPEDFAVYYCQQYHSYPTFGGGTKVEIK
notes: IgG1 kappa
B2: SA301a HC-H52R (antibody, name in Kabat numbering, V domains shown)
VH: B1 VH with I53R
VL: B1 VL
notes: IgG1 kappa
B3: SA301a HC-H52S (antibody, name in Kabat numbering, V domains shown)
VH: B1 VH with I53S
VL: B1 VL
notes: IgG1 kappa
B4: SA301a HC-H52D (antibody, name in Kabat numbering, V domains shown)
VH: B1 VH with I53D
VL: B1 VL
notes: IgG1 kappa
B5: SA301a HC-H52G (antibody, name in Kabat numbering, V domains shown)
VH: B1 VH with I53G
VL: B1 VL
notes: IgG1 kappa
B6: SA301a HC-H52N (antibody, name in Kabat numbering, V domains shown)
VH: B1 VH with I53N
VL: B1 VL
notes: IgG1 kappa
B7: SA301a light chain variant V29Q (antibody, V domains shown)
VH: B1 VH with I53H
VL: B1 VL with V29Q
B8: SA301a light chain variant V29Y (antibody, V domains shown)
VH: B1 VH with I53H
VL: B1 VL with V29Y
B9: SA301a light chain variant S28H (antibody, V domains shown)
VH: B1 VH with I53H
VL: B1 VL with S28H
B10: SA301a light chain variant V29M (antibody, V domains shown)
VH: B1 VH with I53H
VL: B1 VL with V29M
B11: SA301a light chain variant S27G (antibody, V domains shown)
VH: B1 VH with I53H
VL: B1 VL with S27G
B12: SA301a light chain variant S28N (antibody, V domains shown)
VH: B1 VH with I53H
VL: B1 VL with S28N
B13: SA301a light chain variant S28F (antibody, V domains shown)
VH: B1 VH with I53H
VL: B1 VL with S28F
B14: SA301a light chain variant S27L (antibody, V domains shown)
VH: B1 VH with I53H
VL: B1 VL with S27L
B15: SA301a light chain variant S28K (antibody, V domains shown)
VH: B1 VH with I53H
VL: B1 VL with S28K
B16: SA301a light chain variant V29A (antibody, V domains shown)
VH: B1 VH with I53H
VL: B1 VL with V29A
B17: SA301a light chain variant V29N (antibody, V domains shown)
VH: B1 VH with I53H
VL: B1 VL with V29N
B18: SA301a light chain variant S27D (antibody, V domains shown)
VH: B1 VH with I53H
VL: B1 VL with S27D
B19: SA301a light chain variant V29R (antibody, V domains shown)
VH: B1 VH with I53H
VL: B1 VL with V29R
B20: SA301a light chain variant V29L (antibody, V domains shown)
VH: B1 VH with I53H
VL: B1 VL with V29L
B21: SA301a light chain variant S27Y (antibody, V domains shown)
VH: B1 VH with I53H
VL: B1 VL with S27Y
B22: SA301a light chain variant S30F (antibody, V domains shown)
VH: B1 VH with I53H
VL: B1 VL with S30F
B23: SA301a light chain variant V29D (antibody, V domains shown)
VH: B1 VH with I53H
VL: B1 VL with V29D
B24: SA301a light chain variant S27M (antibody, V domains shown)
VH: B1 VH with I53H
VL: B1 VL with S27M
B25: SA301a light chain variant S27P (antibody, V domains shown)
VH: B1 VH with I53H
VL: B1 VL with S27P
B26: SA301a light chain variant S28Q (antibody, V domains shown)
VH: B1 VH with I53H
VL: B1 VL with S28Q
B27: SA301a light chain variant S28P (antibody, V domains shown)
VH: B1 VH with I53H
VL: B1 VL with S28P
B28: SA301a light chain variant S30L (antibody, V domains shown)
VH: B1 VH with I53H
VL: B1 VL with S30L
B29: SA301a light chain variant S27Q (antibody, V domains shown)
VH: B1 VH with I53H
VL: B1 VL with S27Q
B30: SA301a light chain variant S28G (antibody, V domains shown)
VH: B1 VH with I53H
VL: B1 VL with S28G
B31: SA301a light chain variant S28Y (antibody, V domains shown)
VH: B1 VH with I53H
VL: B1 VL with S28Y
B32: SA301a light chain variant V29G (antibody, V domains shown)
VH: B1 VH with I53H
VL: B1 VL with V29G
B33: SA301a light chain variant V29P (antibody, V domains shown)
VH: B1 VH with I53H
VL: B1 VL with V29P
B34: SA301a light chain variant S27K (antibody, V domains shown)
VH: B1 VH with I53H
VL: B1 VL with S27K
B35: SA301a light chain variant S27R (antibody, V domains shown)
VH: B1 VH with I53H
VL: B1 VL with S27R
B36: SA301a light chain variant S28D (antibody, V domains shown)
VH: B1 VH with I53H
VL: B1 VL with S28D
B37: SA301a light chain variant S30D (antibody, V domains shown)
VH: B1 VH with I53H
VL: B1 VL with S30D
B38: SA301a light chain variant S28M (antibody, V domains shown)
VH: B1 VH with I53H
VL: B1 VL with S28M
B39: SA301a light chain variant S27I (antibody, V domains shown)
VH: B1 VH with I53H
VL: B1 VL with S27I
B40: SA301a light chain variant S28E (antibody, V domains shown)
VH: B1 VH with I53H
VL: B1 VL with S28E
B41: SA301a light chain variant S28T (antibody, V domains shown)
VH: B1 VH with I53H
VL: B1 VL with S28T
B42: SA301a light chain variant S27H (antibody, V domains shown)
VH: B1 VH with I53H
VL: B1 VL with S27H
B43: SA301a light chain variant V29H (antibody, V domains shown)
VH: B1 VH with I53H
VL: B1 VL with V29H
B44: SA301a light chain variant S27A (antibody, V domains shown)
VH: B1 VH with I53H
VL: B1 VL with S27A

These binders were tested against T1, human IL-18BP (human, UniProt O95998 31-194) (assay: BLI, apparent KD).
T1 construct: UniProt printed as 095998; also called hIL-18BP
T1 sequence: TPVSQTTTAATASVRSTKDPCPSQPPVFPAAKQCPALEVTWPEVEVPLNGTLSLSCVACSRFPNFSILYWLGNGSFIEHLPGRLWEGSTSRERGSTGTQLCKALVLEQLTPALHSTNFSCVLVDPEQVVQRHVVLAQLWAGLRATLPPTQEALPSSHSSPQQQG
Work on B1 yielded a Kd of 0.53 nM.
B2 showed a Kd of 1.36 nM.
B3 gave a Kd of 0.63 nM.
B4 gave a Kd of 0.35 nM.
In the case of B5, the Kd is reported as 1.68 nM.
B6 gave a Kd of 1.04 nM.

Target: T2, cynomolgus IL-18BP (cynomolgus monkey)
T2 construct: also called cyno IL-18BP; cyIL-18BP
T2 chain: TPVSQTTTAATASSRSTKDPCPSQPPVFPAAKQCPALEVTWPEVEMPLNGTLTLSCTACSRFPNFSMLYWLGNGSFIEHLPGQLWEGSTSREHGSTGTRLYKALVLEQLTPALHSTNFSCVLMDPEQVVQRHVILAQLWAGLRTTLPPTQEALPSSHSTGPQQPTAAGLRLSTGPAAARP
Experiment: BLI, apparent KD
With B1 the Kd was 1.72 nM.
B2 showed a Kd of 1.55 nM.
B3 gave a Kd of 1.16 nM.
Binder B4 has a Kd of 0.91 nM.
Work on B5 yielded a Kd of 1.66 nM.
Binder B6 has a Kd of 2.83 nM.

The binders below were run against T3, human IL-18BP (human, UniProt O95998 31-194) (assay: BLI, apparent KD, one conc.).
T3 construct: also called hIL-18BP; Mature Human Isoform A
T3 sequence: T1 sequence
Binder B7 has a Kd of 0.3 nM.
B8 gave a Kd of 0.4 nM.
For B9, the Kd was 0.44 nM.
For B10, the Kd was 0.35 nM.
B11 showed a Kd of 0.49 nM.
With B12 the Kd was 0.45 nM.
B13 was tested, and the Kd was 0.46 nM.
With B14 the Kd was 0.44 nM.
B15 showed a Kd of 0.51 nM.
B16 was tested, and the Kd was 0.4 nM.
For B17, the Kd was 0.44 nM.
In the case of B18, the Kd is reported as 0.43 nM.
With B19 the Kd was 0.38 nM.
In the case of B20, the Kd is reported as 0.33 nM.
With B21 the Kd was 0.37 nM.
Work on B22 yielded a Kd of 0.35 nM.
For B23, the Kd was 0.43 nM.
With B24 the Kd was 0.63 nM.
For B25, the Kd was 0.45 nM.
B26 gave a Kd of 0.45 nM.
In the case of B27, the Kd is reported as 0.39 nM.
In the case of B28, the Kd is reported as 0.49 nM.
Work on B29 yielded a Kd of 0.43 nM.
B30 showed a Kd of 0.51 nM.
For B31, the Kd was 0.47 nM.
B32 showed a Kd of 0.41 nM.
B33 was tested, and the Kd was 0.38 nM.
B34 was tested, and the Kd was 0.52 nM.
Work on B35 yielded a Kd of 0.45 nM.
B36 gave a Kd of 0.42 nM.
B37 was tested, and the Kd was 0.31 nM.
B38 was tested, and the Kd was 0.51 nM.
For B39, the Kd was 0.5 nM.
B40 was tested, and the Kd was 0.39 nM.
B41 gave a Kd of 0.43 nM.
Binder B42 has a Kd of 0.53 nM.
For B43, the Kd was 0.47 nM.
Work on B44 yielded a Kd of 0.47 nM.
